Data set [1] addresses collagenase-3 receptor and low density lipoprotein receptor-related protein on MEF-1 cells. Put plainly: competition with ^125I mouse collagenase-3 on MEF-1 cells; 200-, 400- and 800-fold excess of competitor.
In data set [2] the target is collagenase-3 dual receptor system on UMR 106-01 cells (collagenase-3 receptor and low density lipoprotein receptor-related protein). In words: competition with ^125I mouse collagenase-3 on UMR-106-01 cells; 200-, 400- and 800-fold excess of competitor.
For data set [3], the target named is collagenase-3 receptor (170 kDa protein) of mouse embryo fibroblasts MEF-1 and MEF-2 (mouse) (UniProt Q64449). Put plainly: competition with ^125I mouse collagenase-3 on MEF-2 (LRP null) cells; 200-, 400- and 800-fold excess of competitor.
The target in data set [4] is collagenase-3 dual receptor system on UMR 106-01 cells (collagenase-3 receptor and low density lipoprotein receptor-related protein). In words: competition with ^125I mouse collagenase-3 on UMR cells.
Data set [5] deals with low density lipoprotein receptor-related protein of human chondrocytes (UniProt Q07954).
Data set [6] has the same target. In words: cell-based or functional assay.
Data set [7] addresses rat collagenase-3 receptor (170 kDa protein) of UMR 106-01 rat osteosarcoma cells and other rat cells (rat). Put plainly: ^125I-labeled ligand at 8 nM on UMR cells, triplicate wells.
Data set [8] shares this target. Put plainly: ^125I-labeled ligand at 10 nM on UMR cells, triplicate wells.

Sequence of rat collagenase-3 receptor (170 kDa protein) of UMR 106-01 rat osteosarcoma cells and other rat cells (rat) (Q4TU93 31-1480): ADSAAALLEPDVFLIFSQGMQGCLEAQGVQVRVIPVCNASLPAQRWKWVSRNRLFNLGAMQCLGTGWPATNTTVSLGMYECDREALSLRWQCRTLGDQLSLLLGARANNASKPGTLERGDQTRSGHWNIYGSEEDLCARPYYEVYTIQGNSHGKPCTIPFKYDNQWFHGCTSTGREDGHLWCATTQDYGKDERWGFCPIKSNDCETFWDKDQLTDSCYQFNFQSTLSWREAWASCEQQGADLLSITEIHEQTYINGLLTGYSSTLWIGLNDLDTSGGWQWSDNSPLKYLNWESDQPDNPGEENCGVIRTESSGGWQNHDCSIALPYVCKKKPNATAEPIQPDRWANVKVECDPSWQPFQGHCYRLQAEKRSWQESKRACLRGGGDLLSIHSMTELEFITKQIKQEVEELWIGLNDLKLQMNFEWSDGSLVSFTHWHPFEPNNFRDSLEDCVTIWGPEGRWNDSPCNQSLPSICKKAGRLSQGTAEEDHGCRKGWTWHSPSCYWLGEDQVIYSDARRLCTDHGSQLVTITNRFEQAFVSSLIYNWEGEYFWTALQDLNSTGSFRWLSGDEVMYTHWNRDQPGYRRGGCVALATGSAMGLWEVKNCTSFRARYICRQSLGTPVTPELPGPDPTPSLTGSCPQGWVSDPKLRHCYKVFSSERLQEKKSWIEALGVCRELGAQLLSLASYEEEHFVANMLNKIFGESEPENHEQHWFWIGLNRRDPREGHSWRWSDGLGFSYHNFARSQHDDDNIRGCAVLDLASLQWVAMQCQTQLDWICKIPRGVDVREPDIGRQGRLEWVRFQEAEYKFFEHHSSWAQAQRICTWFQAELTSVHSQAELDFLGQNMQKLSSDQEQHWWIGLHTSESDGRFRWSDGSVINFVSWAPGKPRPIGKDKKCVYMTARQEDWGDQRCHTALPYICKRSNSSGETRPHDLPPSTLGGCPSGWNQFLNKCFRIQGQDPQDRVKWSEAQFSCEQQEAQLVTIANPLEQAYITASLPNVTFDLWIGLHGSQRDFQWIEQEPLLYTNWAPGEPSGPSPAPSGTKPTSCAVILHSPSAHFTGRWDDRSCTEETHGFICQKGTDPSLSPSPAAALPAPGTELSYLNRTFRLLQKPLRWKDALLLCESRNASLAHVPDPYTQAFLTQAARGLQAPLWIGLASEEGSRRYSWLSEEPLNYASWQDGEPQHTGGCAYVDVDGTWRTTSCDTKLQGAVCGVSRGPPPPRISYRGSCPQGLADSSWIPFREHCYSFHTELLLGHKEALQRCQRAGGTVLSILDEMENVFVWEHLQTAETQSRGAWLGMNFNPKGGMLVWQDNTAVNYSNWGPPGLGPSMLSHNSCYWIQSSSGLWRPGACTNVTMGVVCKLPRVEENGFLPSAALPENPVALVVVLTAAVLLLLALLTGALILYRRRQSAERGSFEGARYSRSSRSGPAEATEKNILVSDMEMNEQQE
Sequence of collagenase-3 receptor (170 kDa protein) of mouse embryo fibroblasts MEF-1 and MEF-2 (mouse) (Q64449 31-1479): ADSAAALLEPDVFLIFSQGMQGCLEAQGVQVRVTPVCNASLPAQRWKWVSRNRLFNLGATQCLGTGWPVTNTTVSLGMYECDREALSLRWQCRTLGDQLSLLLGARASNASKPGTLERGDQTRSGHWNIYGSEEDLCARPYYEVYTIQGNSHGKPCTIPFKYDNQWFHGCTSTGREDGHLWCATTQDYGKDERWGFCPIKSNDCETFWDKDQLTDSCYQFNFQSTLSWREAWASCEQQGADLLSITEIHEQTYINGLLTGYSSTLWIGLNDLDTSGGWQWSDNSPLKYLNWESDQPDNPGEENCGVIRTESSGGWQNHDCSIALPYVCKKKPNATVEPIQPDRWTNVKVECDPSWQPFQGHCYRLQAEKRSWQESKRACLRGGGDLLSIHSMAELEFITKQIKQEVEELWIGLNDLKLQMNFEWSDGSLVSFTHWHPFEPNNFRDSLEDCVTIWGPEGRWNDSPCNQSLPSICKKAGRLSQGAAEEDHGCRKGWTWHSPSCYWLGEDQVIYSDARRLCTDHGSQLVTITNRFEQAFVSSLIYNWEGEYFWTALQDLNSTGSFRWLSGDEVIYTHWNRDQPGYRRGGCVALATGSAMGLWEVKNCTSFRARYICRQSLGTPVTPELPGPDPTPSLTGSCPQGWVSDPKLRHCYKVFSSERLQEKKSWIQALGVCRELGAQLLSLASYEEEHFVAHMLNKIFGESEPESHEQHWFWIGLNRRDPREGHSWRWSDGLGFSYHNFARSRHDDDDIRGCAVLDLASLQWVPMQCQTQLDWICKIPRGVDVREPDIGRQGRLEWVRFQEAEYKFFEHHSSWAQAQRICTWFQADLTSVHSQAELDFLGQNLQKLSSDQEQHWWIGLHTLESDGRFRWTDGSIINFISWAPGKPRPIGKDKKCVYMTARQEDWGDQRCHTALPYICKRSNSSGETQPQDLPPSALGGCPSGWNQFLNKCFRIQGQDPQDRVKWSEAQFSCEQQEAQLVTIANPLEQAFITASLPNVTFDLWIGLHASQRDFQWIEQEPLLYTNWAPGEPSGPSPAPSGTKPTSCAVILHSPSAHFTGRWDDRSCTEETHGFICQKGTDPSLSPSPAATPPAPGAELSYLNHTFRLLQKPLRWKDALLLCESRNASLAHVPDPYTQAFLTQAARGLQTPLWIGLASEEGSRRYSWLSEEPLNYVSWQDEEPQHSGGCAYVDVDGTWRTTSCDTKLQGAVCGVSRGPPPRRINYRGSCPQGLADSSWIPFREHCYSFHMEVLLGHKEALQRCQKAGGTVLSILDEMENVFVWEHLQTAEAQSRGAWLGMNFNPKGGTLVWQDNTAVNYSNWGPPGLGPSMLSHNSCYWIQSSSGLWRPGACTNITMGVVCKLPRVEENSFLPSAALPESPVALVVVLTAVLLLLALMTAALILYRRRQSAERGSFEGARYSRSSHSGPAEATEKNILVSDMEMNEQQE
Sequence of human fibroblast collagenase-1 (MMP-1) (P03956 100-469): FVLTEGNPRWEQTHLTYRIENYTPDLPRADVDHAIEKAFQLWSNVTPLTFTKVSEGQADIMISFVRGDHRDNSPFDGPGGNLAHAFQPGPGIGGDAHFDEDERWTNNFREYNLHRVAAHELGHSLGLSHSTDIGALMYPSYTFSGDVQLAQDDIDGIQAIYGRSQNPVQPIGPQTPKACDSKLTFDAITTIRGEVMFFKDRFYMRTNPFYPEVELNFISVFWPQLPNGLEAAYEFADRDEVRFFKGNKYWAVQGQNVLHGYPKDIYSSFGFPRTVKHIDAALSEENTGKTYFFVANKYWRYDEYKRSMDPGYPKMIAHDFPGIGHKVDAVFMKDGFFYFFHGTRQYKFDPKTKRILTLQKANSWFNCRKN
Sequence of human 72 kDa gelatinase (MMP-2) (P08253 30-660 limits assumed): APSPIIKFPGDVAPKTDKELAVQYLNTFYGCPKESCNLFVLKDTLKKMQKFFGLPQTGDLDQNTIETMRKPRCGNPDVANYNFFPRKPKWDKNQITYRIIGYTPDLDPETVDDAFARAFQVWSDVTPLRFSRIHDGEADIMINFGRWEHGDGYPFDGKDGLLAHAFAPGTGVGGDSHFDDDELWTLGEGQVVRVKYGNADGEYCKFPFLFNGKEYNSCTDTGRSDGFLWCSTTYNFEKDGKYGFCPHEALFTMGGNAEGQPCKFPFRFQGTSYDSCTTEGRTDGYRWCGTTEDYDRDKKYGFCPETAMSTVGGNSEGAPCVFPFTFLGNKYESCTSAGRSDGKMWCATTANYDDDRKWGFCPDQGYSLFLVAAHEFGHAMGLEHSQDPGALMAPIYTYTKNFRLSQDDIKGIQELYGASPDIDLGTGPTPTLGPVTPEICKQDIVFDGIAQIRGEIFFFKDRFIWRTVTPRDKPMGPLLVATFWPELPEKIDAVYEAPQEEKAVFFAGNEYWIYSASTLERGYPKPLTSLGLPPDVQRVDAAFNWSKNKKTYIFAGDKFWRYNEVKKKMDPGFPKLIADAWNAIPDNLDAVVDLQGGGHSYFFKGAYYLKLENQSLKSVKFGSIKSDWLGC
Sequence of human 92 kDa gelatinase (MMP-9) (P14780 20-707 limits assumed): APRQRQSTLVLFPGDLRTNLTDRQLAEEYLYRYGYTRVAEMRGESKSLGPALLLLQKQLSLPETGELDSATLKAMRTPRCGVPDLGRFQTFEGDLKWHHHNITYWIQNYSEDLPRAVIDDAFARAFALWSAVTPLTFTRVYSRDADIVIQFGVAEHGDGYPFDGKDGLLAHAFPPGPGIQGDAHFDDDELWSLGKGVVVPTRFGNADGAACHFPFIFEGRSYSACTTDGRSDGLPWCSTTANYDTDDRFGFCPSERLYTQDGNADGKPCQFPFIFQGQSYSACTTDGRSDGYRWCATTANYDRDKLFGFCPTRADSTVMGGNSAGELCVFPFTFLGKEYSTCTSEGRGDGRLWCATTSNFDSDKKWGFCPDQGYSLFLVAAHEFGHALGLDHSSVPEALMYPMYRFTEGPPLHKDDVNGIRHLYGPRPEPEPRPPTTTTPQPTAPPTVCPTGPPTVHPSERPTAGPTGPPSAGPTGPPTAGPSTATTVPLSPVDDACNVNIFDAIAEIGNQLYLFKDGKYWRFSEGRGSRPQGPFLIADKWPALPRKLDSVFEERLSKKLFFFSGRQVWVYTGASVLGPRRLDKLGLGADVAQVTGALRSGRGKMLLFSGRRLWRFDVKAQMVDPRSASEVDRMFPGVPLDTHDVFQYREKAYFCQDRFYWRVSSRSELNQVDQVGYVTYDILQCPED

As for “C-terminally truncated mouse collagenase-3, M(1-265) (from UniProt P33435 20-265) (enzyme)”, the percent of mouse collagenase-3 binding in data set [1] and in data set [2] was 100% each time.

As to “H/M(229-472) chimeric collagenase (from UniProt P03956 20-223; P33435 229-472) (enzyme)”, the percent of mouse collagenase-3 binding in data set [1] stood at 2.2%; in data set [2] it was 16.5%.

For the substance “HM(141-228)/H chimeric collagenase (from UniProt P03956 20-135; P33435 141-228; P03956 224-408) (enzyme)”, the percent of mouse collagenase-3 binding in data set [3] came out at 75.1%; in data set [1] it was 94.3%; in data set [2], 89.9%.

Take “HM(166-228)/H chimeric collagenase (from UniProt P03956 20-160; P33435 166-228; P03956 224-408) (enzyme)”: the percent of mouse collagenase-3 binding in data set [3] was 97.2%; in data set [1] it was 80.8%; in data set [2], 67.8%.

As to “HM/M(141-472) chimeric collagenase (from UniProt P03956 20-135; P33435 141-472) (enzyme)”, the percent of mouse collagenase-3 binding in data set [1] was 84.4%; in data set [2], 95.7%.

Take “M(1-228)/H chimeric collagenase (from UniProt P33435 20-228; P03956 224-408) (enzyme)”: the values for the percent of mouse collagenase-3 binding in data set [3], in data set [1] and in data set [2] were 41.9%, 85.9% and 85.3%, respectively. Moreover, the competition efficiency compared to full-length collagenase-3 in data set [4] is more than 90%.

“MH(213-267)/M chimeric collagenase (exon 5 replacement) (from UniProt P33435 20-212; P03956 213-267; P33435 268-472) (enzyme)”: the percent of mouse collagenase-3 binding in data set [3] is 98.7%; in data set [1], 99.1%; in data set [2], 95.5%.

As to ^125I collagenase-3 of Example 3, the “reduction of collagenase-3 internalization by RAP in osteoarthritis chondrocytes” value in data set [5] is “by 74.3%”.

For the substance “^125I collagenase-3 of Example 3 (enzyme)”, in data set [6], the inhibition of collagenase-3 internalization by receptor-associated protein in control human chondrocytes turned out to be 88.2%.

For “human 72 kDa gelatinase (MMP-2) (from UniProt P08253 30-660) (enzyme)”, the Specific binding (fmol/2.6 × 10^5 cells) in data set [7] was determined as 0.

Consider “human 92 kDa gelatinase (MMP-9) (from UniProt P14780 20-707) (enzyme)”, for which, in data set [8], the Specific binding (fmol/2.6 × 10^5 cells) stood at 3.9.

In data set [7], “human fibroblast collagenase-1 (MMP-1) (from UniProt P03956 100-469) (enzyme)” had a Specific binding (fmol/2.6 × 10^5 cells) of 0.1. This substance also yielded a percent of mouse collagenase-3 binding in data set [2] of 0%.

In data set [7], “human stromelysin-1 (MMP-3) (from UniProt P08254 18-477) (enzyme)” gave a Specific binding (fmol/2.6 × 10^5 cells) of 0.

With “recombinant mouse collagenase-3 (mMMP-13, residues 1-472) (from UniProt P33435 20-472) (enzyme)”, the percent of mouse collagenase-3 binding in data set [1] and in data set [2] was 100% in each case.

The values above are taken from patent US6403637.
